Consider 1 protein from patent US20220162265A1 (University of Washington, published 2022).

The series deals with the molecule itself. Put plainly: self-assembly into 2D arrays, negative-stain EM and AFM. Here is the method: Samples were applied to glow-discharged EM grids and stained with either uranyl acetate (UA), uranyl formate (UF) or NanoW™ (Nanoprobes, Inc, Yaphank, N.Y., USA) for screening or analysis. Data was collected using a Tecnai T12 equipped with a Gatan Orius CCD. CTF estimation was performed using GCTF (10), and all other image processing steps were completed via Relion™ 2.1 (11). For the analysis in FIG. 2G, 421 2D array segments were picked manually from 42 micrographs, and the resulting 2D class average used as a template for Relion™ autopicking, which yielded 5,823 2D array segments. After subsequent 2D classification and alignment, the dominant 2D class consisted of 1,893 array segments (each approximately 20 nm diameter).

B1: 2D-HP (designed binder)
chain: MGSRTMYIRALEQSLREQEELAKRLKELLRELERLQREGSSDRDVKVLLWEIEALVEEIEKLARLQKELVEKLKRQGSGNMYIRALEQSLREQEELAKRLKELLRELERLQREGSSDRDVKVLLWEIEALVEEIEKLARLQKELVEKLKRQD
notes: Expressed from pET28b(+) between NdeI and XhoI; also called design 2D-HP; designed 2D assembly 2D-HP
For B1, the binding result is reported as “binds”.
